The conditions of the data set: N-glycosylation at N74.

In the case of “Candida antarctica lipase B (CaLB): Asn74Ala (CaLB-degl and CaLB-degl-lid), residual activity after 10 min heat incubation”, the stability_or_folding entry is “decreases, >50% activity lost at 48 °C and almost inactive at 58 °C, vs 42% relative activity at 58 °C for wt”. “Candida antarctica lipase B (CaLB): Asn74Ala (CaLB-degl), purified free enzyme, pNPB assay”: the enzymatic_activity result is given as “decreases, hydrolytic activity 10.49 to 7.57 µmol(min∙mg)−1”. Still for that read-out and setting: then “Candida antarctica lipase B (CaLB): Asn74Ala (CaLB-degl), ε-caprolactone polymerization in aqueous toluene”, with “increases, Free enzyme: Mn 1100 to 1900 Da, Coligo 13% to 29% (factor 1.7). Immobilized: Mn 5200 to 6700 Da, Coligo 86% to 91%”; and “Candida antarctica lipase B (CaLB): Asn74Ala, S. cerevisiae MTP culture supernatant, pNPB assay”, with “no change, 94% relative hydrolytic activity”.

With “Candida antarctica lipase B (CaLB): Asn74Ser, S. cerevisiae MTP culture supernatant, pNPB assay”, the enzymatic_activity result is recorded as “decreases”.

The record behind these values is PMC6415414.
